According to PMC10452240, “Biochemical Characterization of the Copper Nitrite Reductase from Neisseria gonorrhoeae” (Biomolecules, 2023):

Molecular target: the molecule itself
Experiment: SEC; Superdex 200 10/300 GL, 50 mM Tris-HCl pH 7.6, 150 mM NaCl; 50 nmol NgCuNiR; apparent molecular weight from a calibration curve (Gel Filtration Calibration Kit, High Molecular Weight)

B1: copper-containing nitrite reductase from Neisseria gonorrhoeae, soluble domain (enzyme)
chain: AAQATAETPAGELPVIDAVTTHAPEVPPAIDRDYPAKVRVKMETVEKTMKMDDGVEYRYWTFDGDVPGRMIRVREGDTVEVEFSNNPSSTVPHNVDFHAATGQGGGAAATFTAPGRTSTFSFKALQPGLYIYHCAVAPVGMHIANGMYGLILVEPKEGLPKVDKEFYIVQGDFYTKGKKGAQGLQPFDMDKAVAEQPEYVVFNGHVGSIAGDNALKAKAGETVRMYVGNGGPNLVSSFHVIGEIFDKVYVEGGKLINENVQSTIVPAGGSAIVEFKVDIPGSYTLVDHSIFRAFNKGALGQLKVEGAENPEIMTQKLSDTAYA
notes: the construct has no signal peptide; cytoplasmic 36.5 kDa protein; Holds one type 1 and one type 2 copper centre per monomer (2.0 ± 0.1 Cu per monomer); No removal of the His-tag is described; also called NgCuNiR; AniA
  stoichiometry N: 3
